Drawing on patent US20200339680A1, this text covers MFI for three substances.

The target of test [1] is human TMEM106B (human) (UniProt Q9NUM4). Nature of the test: FACS A549.
For test [2] the target is unchanged. Nature of the test: FACS HeLa.
Test [3] has the same target. Nature of the test: FACS U251.
Another test has as its target mouse TMEM106B (mouse) (UniProt Q80X71). Nature of the test: FACS Neuro2a.

For the substance Negative ctrl #3 (antibody), the MFI in the test with human TMEM106B (human) [1] came to 95 MFI; with human TMEM106B (human) [2], 143 MFI; with human TMEM106B (human) [3], 164 MFI; with mouse TMEM106B (mouse), 216 MFI.

Turning to Negative ctrl #1 (antibody), the MFI came to 148 MFI in the test with human TMEM106B (human) [1], 152 MFI with human TMEM106B (human) [2], 165 MFI in the test with human TMEM106B (human) [3] and 220 MFI in the test with mouse TMEM106B (mouse).

As to Negative ctrl #2 (antibody), the MFI in the test with human TMEM106B (human) [1] is 162 MFI; with human TMEM106B (human) [2], 149 MFI; in the test with human TMEM106B (human) [3] it was 165 MFI; with mouse TMEM106B (mouse), 235 MFI.
